The values below come from paper PMC5473940, “SAF-A Regulates Interphase Chromosome Structure through Oligomerization with Chromatin-Associated RNAs” (Cell, 2017).

The data set concerns the molecule itself. The data set is described as follows: native gel or EMSA; FLAG-SAF-A cross-linked in cells with 1 mM DTME, immuno-purified, cross-links reversed with 10 mM DTT, incubated 30 min at 37°C with 1 mM ATP or ATPγS, RNase A/T1 or apyrase (the last two promoted monomerization); native PAGE and western blot.

B1: full-length FLAG-tagged SAF-A (293T) (natural protein)
chain: not shown
notes: SAF-A (HNRNP-U), human cDNA from Genome Cube; Modified pcDNA5/FRT vector; also called FLAG-SAF-A; 3xFLAG-SAF-A; source: 293T, expressed, cross-linked in cells, immuno-purified (anti-FLAG M2 agarose, 3xFLAG peptide elution); not shown: 3xFLAG, N-terminal, kept
B1: the binding result is given as “binds”.
